Results from the DeepSol protein solubility set.

assay: soluble on expression in E. coli; label from the status in PepcDB or PDB records

Sequence	soluble on expression in E. coli
MAFICELDEQWSYVGSKARQHWLGYAYNTKTGGVLAYTFGPRTDQTCRELLALLTPFNIGMLTSDDWGSYGREVPKNKHLTGKIFTQRIERNNLTLRTRIKRLGRKTICFSRSVEIHEKVIGAFIEKHMFY	not soluble
MGSSHHHHHHGKTIFVIVPTNEEQVAFLEALAKQDELNFDWQNPPTEPGQPVVILIPSDMVEWFLEMLKAKGIPFTVYVEEGGSENLYFQGGGGGGFVPNWYQHPDPALKYADDMEVYDYYQQYEAAKKAAREASTSSKKTAATSPALPRAKPHVTIA	soluble
MMNDGKQQSTFLFHDYETFGTHPALDRPAQFAAIRTDSEFNVIGEPEVFYCKPADDYLPQPGAVLITGITPQEARAKGENEAAFAARIHSLFTVPKTCILGYNNVRFDDEVTRNIFYRNFYDPYAWSWQHDNSRWDLLDVMRACYALRPEGINWPENDDGLPSFRLEHLTKANGIEHSNAHDAMADVYATIAMAKLVKTRQPRLFDYLFTHRNKHKLMALIDVPQMKPLVHVSGMFGAWRGNTSWVAPLAWHPENRNAVIMVDLAGDISPLLELDSDTLRERLYTAKTDLGDNAAVPVKLVHINKCPVLAQANTLRPEDADRLGINRQHCLDNLKILRENPQVREKVVAIFAEAEPFTPSDNVDAQLYNGFFSDADRAAMKIVLETEPRNLPALDITFVDKRIEKLLFNYRARNFPGTLDYAEQQRWLEHRRQVFTPEFLQGYADELQMLVQQYADDKEKVALLKALWQYADEIVEHHHHHH	soluble
MSLDEPTDGTGAGTSATEMLDSLEVKGRAPKTGYKRTQFGKAWADVDHNGCDTRNDILNRDLTGVRHKWRTHNCVVKSGKLHDPYTGKDIKFKKGKKTSTAVQIDHVVALSDAWQKGAQKLSEERRTALANDPYNLMAVQGRANQKKSDGDAATWMPSNKGFRCEYVARQIGVKHKYSLWVTQAEKEAMAKVLSSCPTQTVPDYTGVKDSTAEKTTESEQTEQTQTEQSAEQAQQTQQTTQAPAPEPAPAPAPAPQPAPQQDVYYQNCTAARAAGAAPIYQGQPGYRSQLDRDHDGVACEEGHHHHHH	soluble
MSLRDYRYSDAHVHYVDFFQESEGMPRLLEAMDKGRVDHVMLSGVAVAKKWHKDEPKRPRYYAGDDAGAYWYSATDVIVAAAVKSLPAEQRRRVHPFLTGFNPTDKNADAHIRRMLELDPGLWQGIGEIFTRHDDLTALTYGDVPRANNEALARVYHLAAEFDLPVLLHANVTSKRERNPLYLAEIEEPLRNHPHVRFIWAHAGTSMEIHRHQKKLDFLLPTLRRLLQRYPNLYIDLSWSVLRPYLLDEQGKPDPQWLALVERFPQRFMLGSDVVGQFDSLPELMASFDPFLDALPEQVARQVARDNFLAVLPREGHHHHHH	soluble
MSLDHHLQGPVVAGMPNLHSHAFQRGMAGLSESRSGEKDSFWSWRKRMYHFLQVLSPEDVEAIASQLYLEMLKAGYTSVGEFHYLHHAVDGKHYANPAEMSERILAASETTGIGLTHLPVLYRFGGFGSREPSFQQGRFIHEPDEFVSLLEKLSPSFEKHPNRRLGMAPHSLRAVSPDLLSKVLPEFQRLCPGSPLHLHISEQTAEVEECLEWSGLRPVQWFFENLEPDSNWCLIHATHLDSQERRKLAESEVTVGLCPTTEANLGDGIFPMKEFMEEGGGFGIGSDSHVSISLCEELRWLEYQQRLLQRQRNCLREGHHHHHH	soluble
MSLKKYTMNEMVDITKDMLNKRGVMIEDIARIVQKLQEKYNPNLPLSVCMENVEKVLNKREIIHAVLTGLALDQLAEQKLLPEPLQHLVETDEPLYGIDEIIPLSIVNVYGSIGLTNFGYLDKEKIGIIKELDESPDGIHTFLDDIVAALAAAAASRIAHTHQDLQDEEKEQDEKPVVSEGGSHHHHHH	soluble
MGSDKIHHHHHHMERHTVNEIEIFTIPFDKARTISCAFLIKKGSAHEPEELAGISHFIEHMAFRGTKSYDHFSLKYTVEVVGGTLNAFTDKLATAYYAKVPEFHFGKTLNVLKEITFYPIFSPEDTEIERKIILEEYKMSQDDPTSKLFDTLVETVWPGPYGRPIIGRKETIEKISSEDLREYHRKNYNLPDTKIILAGKVNDDYLSLLEKELSELERNKPGDPLPPPPSFEHTEPRYIVRNDLEQVHIAMARPICGRISEDIYPLYALNTALGSGMSSILFHEIREKEGFVYDVFSQIYALKETGIIIVYAALSPEKIDEFFSKMKDVLSNESLFMKNFEYGKMRYLGKLDMVTDNPAGMMSFVIDDLSNDSLETIEERVERIKNVSKEDYRRAYERFIAGNWSVFGIGPESGKIIEKHEMIV	not soluble
SLLSPAAERSQGSLLSVIMEILKDQSHRELFGLELGSGTGQHVVHFAQEMPFVTWLPSDTKEESRNSIRAYIEATKAKTVLEPVHLDASEPWDKWAGLPQNSCDIILAINLLQYTPFSTAEGVFKGSGQILKQNGLLMTYGPYAINGTITPICNEQLDETLRQMNPEWGLPDIDVLRQLAFSNGMRMERMIEMPESNKCLVFRKL	soluble
MRTQWPSPAKLNLFLYITGQRADGYHTLQTLFQFLDYGDTISIELRDDGDIRLLTPVEGVEHEDNLIVRAARLLMKTAADSGRLPTGSGANISIDKRLPMGGGLGGGSSNAATVLVALNHLWQCGLSMDELAEMGLTLGADVPVFVRGHAAFAEGVGEILTPVDPPEKWYLVAHPGVSIPTPVIFKDPELPRNTPKRSIETLLKCEFSNDCEVIARKRFREVDAVLSWLLEYAPSRLTGTGACVFAEFDTESEARQVLEQAPEWLNGFVAKGVNLSPLHRAML	soluble
MSLGQDEALEKALDMIRNADRIVIGGGAGLSACGGLNYMSLEVLKKEFPALARRGYHTLWEALWDDRRTKQQKIGMMAAEVLWACYDFPVIRAYQDLLRMVEDKDYFVLTSNIDRQFHKAGFEEERIFEPQCSASDLQCQTPCCRDIWDGESVWRKIAANMDRETYACREEDIPRCDRCHAPAVQNMRGIKSFIPDKVMWNRIEFEQYIKEASDLRTVFLELGAGFNSPGVIRHPFQRLAYRYPKAALIRMNQEFPKVPEKIKDRSVEIAGDIGEALAQMRRLYEREGHHHHHH	soluble
MEPMRIGPRLSVAAVSHVGRRQNNEDFHRVLPLETPAGLLLLLAVADGMGGLEAGEWASKLAIEALSEAARGYAEHLQSGRPAVGLARVMEKGFLLARRRVEREAERPGRRGMGTTLTAFLYADWLKEGVVGHIGDSRAYRFGPTGVFRLTEDHSWVAERLKEGVLTRTEAERHPYRNVLTRALGLPEARFDLVEVRLAPGEGVLLVTDGLYGHVPEEEWRLGRDLQASLEAMVAEALRRGGDDNVTAVALRVE	soluble
QREIQGVRHFVADLSEAARLGLVPGEHYFCVSSIRVDRQHDGAPLCWTDVYAQRDYTAVIELAREHPDQLIAGLIEQHYGRAIAVVDQQVRAVLLTAEMARALKAEAGSPGLKIIRHYREENGDLMAVSETVHPDDRFT	not soluble
MAVKLGTLLLALALGLAQPASARRKLLVFLLDGFRSDYISDEALESLPGFKEIVSRGVKVDYLTPDFPSLSYPNYYTLMTGRHCEVHQMIGNYMWDPTTNKSFDIGVNKDSLMPLWWNGSEPLWVTLTKAKRKVYMYYWPGCEVEILGVRPTYCLEYKNVPTDINFANAVSDALDSFKSGRADLAAIYHERIDVEGHHYGPASPQRKDALKAVDTVLKYMTKWIQERGLQDRLNVIIFSDHGMTDIFWMDKVIELNKYISLNDLQQVKDRGPVVSLWPAPGKHSEIYNKLSTVEHMTVYEKEAIPSRFYYKKGKFVSPLTLVADEGWFITENREMLPFWMNSTGRREGWQRGWHGYDNELMDMRGIFLAFGPDFKSNFRAAPIRSVDVYNVMCNVVGITPLPNNGSWSRVMCMLKGRAGTAPPVWPSHCALALILLFLLA	soluble
MEKVEHLNLNIQNILEDVDIDTASSSSDDEPEQAVVKQEKLEAGEQIEEQYDTDSDYDDDIVEFAEATGDFTKKLNAARLNTIGPNAARNRLTVDVERHADTSEDRKRKRVKDRADRATVEQVLDPRTRLVLFRLLQRGTLLNIDGCISTGKEANVYHATGTDNDLAIKIYKTSILTFKDRERYVTGEFRYRHGYCKSNPRKMVAVWAEKEMRNLARMHEVGLPVPKPHLLKGHVLVMDFLGKDGWPAPLLKNANLSQEDAEPMYVGLVRDMRRLYRECKLVHADLSEFNMLVHDGKLWIIDVSQSVEQDHPHALEFLRMDCNNVNKFFRELGVPVLSVRRLFEVIVDPLMSSKEMETIIEEERVLVNSEDDSLFMNAFIPHKLEHVLHFERDGKLAKEGVEANNPFQNIVSKIDLKGDGFGEEHDDSDDNDDEENGKKSRKKRAEPTEEEIQEKERKIAMHTRNREETAEERKERKAAVKEEKREQRKEKIPKHLKKRAHRQHMKYQSSPWSTLINCLHTLVP	not soluble
MVLNSMRLFYILSQRDASSKNFNSSIYSRRSSRNSGCPGALFRSGRAVPFERVVGQQYFLKAYAILHSLNICRVEAGYIFDRKKTKFQDFLRFGRAGMASGVGGGSEGGPDDVKNSYIRVNGEPEIVYQ	not soluble
MGSDKIHHHHHHMRVLAAMSGGVDSAVAAARAVEAGHDVVGVHLALSRMPGTLRTGSRGCCTIEDSRDAWRACDVLGIPYYVWDFSERFKEDVVQDFIDEYAAGRTPNPCMRCNERIKFAALLEKAIALGFDAVCTGHYAKVITDADGNPELHRAADWAKDQSYVLGVLTHEQLKHSMFPLADTPSKAEVRAEAERRGLSVANKPDSHDICFIPDGDTAGWLAEKIEMTTGDIVDEAGTKVGEHPGANAFTVGQRRGLKLGTPAADGKPRFVLEIRPKENKVVVGPEALLAIDEIRGIKVSWAGLPIAEVATGDEFDCHAQVRAHGDPVPATARMERLTDDDGAERTNLVVTLATPLRGVAPGQTVVLYQGSRVLGQATIDTARSLQRAAL	not soluble
KAKTEDFVKAFQVFDKESTGKVSVGDLRYMLTGLGEKLTDAEVDELLKGVEVDSNGEIDYKKFIEDVLRQ	soluble
MTAFVHTLSDGMELTVEIKRRAKKNLIIRPAGTHTIRISVPPCFSVSALNRWLYENEAVLRQTLAKTPPPQTAENRLPESILFHGRQLALTAHQDTQILLMPSEIRVPEGAPEKQLALLRDFLERQAHSYLIPRLERHARTTQLFPAPSSLTSAKTFWGVCRKTTGIRFNWRLVGAPEYVADYVCIHELCHLAHADHSRAFWALTRRFAPYTPEAKQWLKIHGRELFALGLEHHHHHH	not soluble
MPYYTNDDNDVDDFTEYDPMPYSGGYDITVTYGRSIPPSDETCYPLSSLSGDAFEYQRPNFSSNHDSSAYDDQALKTEYSSYARPGPVGSGSDFGRKPNSGYGGRTEVEYGRKTESEHGSGYGGRIESDYVKPSYGGHEDDGDDGHKKHSGKDYDDGDEKSKKKEKEKKKDKKKDGNNSEDDEFKKKKKKEQYKEHHDDDDYDEKKKKKKDYNDDDEKKKKKHYNDDDDEKKKKHNYNDDDDEKKKKKEYHDDEDKKKKKHYDNDDDEKKKKKDHRDDDDEKKKKKDKHHKGHD	soluble
ADPDVLTEVPAALKRLAKYVIRGFYGIEHALALDILIRNSCVKEEDMLELLKFDRKQLRSVLNNLKGDKFIKCRMRVETAADGKTTRHNYYFINYRTLVNVVKYKLDHMRRRIETDERDSTNRASFKCPVCSSTFTDLEANQLFDPMTGTFRCTFCHTEVEEDESAMPKKDARTLLARFNEQIEPIYALLRETEDVNLAYEILEPEPTEIPALKQSKDHAATTAGAASLAGGHHREAWATKGPSYEDLYTQNVVINMDDQEDLHRASLEGKSAKERPIWLRESTVQGAYGSEDMKEGGIDMDAFQEREEGHAGPDDNEEVMRALLIHEKKTSSAMAGSVGAAAPVTAANGDDSESETSESDDDSPPRPAAVAVHKREEDEEEDDEFEEVADDPIVMVAGRPFSYSEVSQRPELVAQMTPEEKEAYIAMGQRMFEDLFE	not soluble
